Molecular target: T1, Vascular endothelial growth factor receptor 2 (VEGFR-2) (human (endogenous in placenta), UniProt P35968 20-1356)
T1 construct: VEGF receptor-2 (VEGFR-2, also known as KDR), human, endogenous in placental tissue; precipitated with a monoclonal VEGFR-2 antibody (Cell Signaling Technology); Endogenous receptor in frozen placental tissue lysates; bait of the co-immunoprecipitation; also called VEGF receptor-2; KDR; source: endogenous, human placental tissue lysate
Assay: co-IP; human placental tissue lysates (8, 12 and 35 weeks of gestation; preeclamptic placentae), 500 ug protein, precleared with Protein-A Agarose, precipitated with 1 ug monoclonal VEGFR-2 antibody overnight at 4 C, washed 3 times in ice cold RIPA buffer, blotted for sFlt-1
Details: partners not purified

T1 sequence (P35968 20-1356): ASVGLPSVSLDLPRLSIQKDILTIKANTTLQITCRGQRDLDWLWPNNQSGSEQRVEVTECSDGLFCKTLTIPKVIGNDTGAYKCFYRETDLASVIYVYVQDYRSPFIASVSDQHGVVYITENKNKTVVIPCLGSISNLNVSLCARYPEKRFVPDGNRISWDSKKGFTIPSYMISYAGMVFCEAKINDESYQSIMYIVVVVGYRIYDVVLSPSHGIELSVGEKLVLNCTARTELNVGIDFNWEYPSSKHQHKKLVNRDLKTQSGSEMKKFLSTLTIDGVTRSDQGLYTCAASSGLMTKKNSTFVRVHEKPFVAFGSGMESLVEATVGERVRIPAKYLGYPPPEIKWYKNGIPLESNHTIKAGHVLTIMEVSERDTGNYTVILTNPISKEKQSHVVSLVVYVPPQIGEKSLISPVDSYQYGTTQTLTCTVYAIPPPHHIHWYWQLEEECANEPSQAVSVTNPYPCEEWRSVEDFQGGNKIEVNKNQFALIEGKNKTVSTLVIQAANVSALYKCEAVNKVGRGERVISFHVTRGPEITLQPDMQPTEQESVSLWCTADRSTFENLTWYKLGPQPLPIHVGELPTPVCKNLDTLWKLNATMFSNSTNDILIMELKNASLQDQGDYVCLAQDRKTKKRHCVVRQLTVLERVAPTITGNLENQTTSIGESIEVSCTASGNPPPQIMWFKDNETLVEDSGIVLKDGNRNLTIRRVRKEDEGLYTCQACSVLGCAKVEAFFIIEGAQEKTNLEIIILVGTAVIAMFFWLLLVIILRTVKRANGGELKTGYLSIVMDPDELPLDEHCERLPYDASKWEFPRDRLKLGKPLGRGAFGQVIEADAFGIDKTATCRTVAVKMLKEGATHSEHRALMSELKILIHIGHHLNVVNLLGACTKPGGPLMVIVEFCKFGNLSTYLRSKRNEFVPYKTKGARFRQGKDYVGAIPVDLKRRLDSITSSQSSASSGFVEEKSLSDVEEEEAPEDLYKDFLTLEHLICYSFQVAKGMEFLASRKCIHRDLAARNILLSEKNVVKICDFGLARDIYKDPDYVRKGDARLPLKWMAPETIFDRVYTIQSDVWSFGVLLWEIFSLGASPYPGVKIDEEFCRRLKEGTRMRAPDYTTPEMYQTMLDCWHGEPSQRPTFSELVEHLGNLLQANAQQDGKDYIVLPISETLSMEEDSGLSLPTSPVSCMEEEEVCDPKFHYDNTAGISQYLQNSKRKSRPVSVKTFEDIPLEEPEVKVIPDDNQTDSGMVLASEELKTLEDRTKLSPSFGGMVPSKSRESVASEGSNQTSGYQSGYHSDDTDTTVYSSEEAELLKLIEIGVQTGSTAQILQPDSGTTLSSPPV

fold co-immunoprecipitated sFlt-1 (densitometry), PE over PTC placentae: 5.98 fold
B1: soluble VEGF receptor-1 (sFlt-1), 105 kDa species (sFlt-13) (natural protein, human (endogenous in placenta), UniProt P17948-2 27-687, looked up)
chain: SKLKDPELSLKGTQHIMQAGQTLHLQCRGEAAHKWSLPEMVSKESERLSITKSACGRNGKQFCSTLTLNTAQANHTGFYSCKYLAVPTSKKKETESAIYIFISDTGRPFVEMYSEIPEIIHMTEGRELVIPCRVTSPNITVTLKKFPLDTLIPDGKRIIWDSRKGFIISNATYKEIGLLTCEATVNGHLYKTNYLTHRQTNTIIDVQISTPRPVKLLRGHTLVLNCTATTPLNTRVQMTWSYPDEKNKRASVRRRIDQSNSHANIFYSVLTIDKMQNKDKGLYTCRVRSGPSFKSVNTSVHIYDKAFITVKHRKQQVLETVAGKRSYRLSMKVKAFPSPEVVWLKDGLPATEKSARYLTRGYSLIIKDVTEEDAGNYTILLSIKQSNVFKNLTATLIVNVKPQIYEKAVSSFPDPALYPLGSRQILTCTAYGIPQPTIKWFWHPCNHNHSEARCDFCSNNEESFILDADSNMGNRIESITQRMAIIEGKNKMASTLVVADSRISGIYICIASNKVGTVGRNISFYITDVPNGFHVNLEKMPTEGEDLKLSCTVNKFLYRDVTWILLRTVNNRTMHYSISKQKMAITKEHSITLNLTIMNVSLQDSGTYACRARNVYTGEEILQKKEITIRGEHCNKKAVFSRISKFKSTRNDCTTQSNVKH
notes: sFlt-1, truncated soluble splice variant of VEGFR-1 (six extracellular IgG like domains with a unique C-terminus), human; isoform assigned by the authors from the band size; Detected by blot with an sFlt-1 antibody (AF321, R&D Systems) in VEGFR-2 immunoprecipitates; also called soluble VEGFR-1; source: endogenous, human placental tissue lysate
